# In paper PMC7447634, “KIN10 promotes stomatal development through stabilization of the [sequence] transcription factor” (Nature Communications, 2020):
# B1: glutathione S-transferase (GST)-SPCH (natural protein, Arabidopsis thaliana, UniProt Q700C7 1-364, looked up)
# chain: MQEIIPDFLEECEFVDTSLAGDDLFAILESLEGAGEISPTAASTPKDGTTSSKELVKDQDYENSSPKRKKQRLETRKEEDEEEEDGDGEAEEDNKQDGQQKMSHVTVERNRRKQMNEHLTVLRSLMPCFYVKRGDQASIIGGVVEYISELQQVLQSLEAKKQRKTYAEVLSPRVVPSPRPSPPVLSPRKPPLSPRINHHQIHHHLLLPPISPRTPQPTSPYRAIPPQLPLIPQPPLRSYSSLASCSSLGDPPPYSPASSSSSPSVSSNHESSVINELVANSKSALADVEVKFSGANVLLKTVSHKIPGQVMKIIAALEDLALEILQVNINTVDETMLNSFTIKIGIECQLSAEELAQQIQQTFC
# notes: full-length cDNA without stop codon in pDEST15 (N-GST); source: bacteria, purified (glutathione beads); not shown: GST, N-terminal, kept
# Target: T1, maltose-binding protein (MBP)-KIN10 (Arabidopsis thaliana, UniProt Q38997-2 1-512)
# T1 construct: KIN10, catalytic alpha subunit of SnRK1, Arabidopsis thaliana; full-length cDNA without stop codon in pMAL2CGW (N-MBP); also called KIN10-MBP; source: bacteria (Escherichia coli), purified (amylose resin); not shown: MBP, N-terminal, kept
# T1 sequence (looked up): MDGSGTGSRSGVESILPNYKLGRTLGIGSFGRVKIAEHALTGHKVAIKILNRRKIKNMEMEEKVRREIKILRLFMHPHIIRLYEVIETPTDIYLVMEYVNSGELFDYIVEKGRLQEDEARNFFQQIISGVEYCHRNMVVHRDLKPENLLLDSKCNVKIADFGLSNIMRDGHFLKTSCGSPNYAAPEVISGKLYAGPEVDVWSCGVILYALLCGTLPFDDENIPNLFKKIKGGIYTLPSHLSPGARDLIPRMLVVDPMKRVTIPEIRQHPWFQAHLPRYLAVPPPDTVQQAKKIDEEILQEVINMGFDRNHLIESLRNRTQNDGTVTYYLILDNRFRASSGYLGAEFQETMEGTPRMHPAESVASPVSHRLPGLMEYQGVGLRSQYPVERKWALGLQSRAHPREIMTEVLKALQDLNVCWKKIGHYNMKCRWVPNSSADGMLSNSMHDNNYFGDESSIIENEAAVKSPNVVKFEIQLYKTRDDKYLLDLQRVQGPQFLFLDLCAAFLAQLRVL
# Experiment: pull-down; 1 µg GST-SPCH bound to glutathione agarose beads incubated with 1 µg MBP or MBP-KIN10; 20 mM Tris-HCl pH 7.5, 100 mM NaCl, 1 mM EDTA, 4 °C, 1 h; washed with 300 mM NaCl, 0.1% Nonidet P-40; blot with anti-MBP
# Conditions: both partners purified
binder,measurement,value
B1,binding result,binds
